Source: the supplement of paper PMC10126150
± gives the standard deviation of the averaged measurements.
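Note: ATP exposure 15 min at 22 °C before imaging.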

The sequences below were run on ATP (assay: switch fluorescence ratio, 500 uM ATP over buffer (Cy3 cluster intensity, sum of 5 cycles each) (fold (ratio)); higher = stronger signal-on switching upon ATP binding; sequences stand for … in TCGTCGGCAGCGTCAGATGTGTATAAGAGACAGTTTTTTTTTTTTTTTTTTTTTTTTT…TC). Settings: aptamer strand: ATP DNA aptamer (quencher-CACCTGGGGGAGTATTGCGGAGGAAGG + anchor), 100 nM annealed; ATP concentration: 500 uM.
In short: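 For every switch-domain sequence, the fluorescence ratio is the mean of per-cluster values, each being summed target-cycle Cy3 intensity over summed buffer-cycle Cy3 intensity. Clusters outside 100-1000 RFU were excluded. On a modified Illumina MiSeq flow-cell, the Cy3-labelled switching-strand clusters were annealed to 100 nM quencher-labelled ATP aptamer, imaged in selection buffer and then after 15 min with 500 uM ATP at 22 °C. Five such cycles were run, with NaOH stripping and re-annealing between them.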
ACTCAGGGGG gave a switch fluorescence ratio of 1.27 ± 0.32.
For ACTCATTCGG, the switch fluorescence ratio was 1.01 ± 0.015.
ACTCGCGGGT gave a switch fluorescence ratio of 1.04 ± 0.021.
ACTCGGGACG was tested, and the switch fluorescence ratio was 0.9715 ± 0.0067.
ACTCGGGCAG gave a switch fluorescence ratio of 0.9937 ± 0.002.
Sequence ACTCGGGGGG has a switch fluorescence ratio of 0.991 ± 0.023.
For ACTCGGGTAC, the switch fluorescence ratio was 1.79 ± 0.15.
For ACTCGTAATC, the switch fluorescence ratio was 3.04 ± 0.48.
ACTCGTAGCA was tested, and the switch fluorescence ratio was 1.19 ± 0.012.
With ACTCGTCACA the switch fluorescence ratio was 1.15 ± 0.059.
ACTCTAGTTC showed a switch fluorescence ratio of 1.063 ± 0.01.
In the case of ACTCTATAAT, the switch fluorescence ratio is reported as 1.146 ± 0.0092.
For ACTCTTATTG, the switch fluorescence ratio was 0.988 ± 0.0039.
Work on ACTCTTGTTG yielded a switch fluorescence ratio of 1.01 ± 0.022.
In the case of ACTGAAAAAG, the switch fluorescence ratio is reported as 0.987 ± 0.019.
ACTGACTGGT was tested, and the switch fluorescence ratio was 1.06 ± 0.037.
For ACTGATAGAG, the switch fluorescence ratio was 1.02 ± 0.065.
ACTGATAGGC gave a switch fluorescence ratio of 1.18 ± 0.23.
Sequence ACTGATCATG has a switch fluorescence ratio of 1.02 ± 0.028.
With ACTGATGAAT the switch fluorescence ratio was 1.06 ± 0.023.
Sequence ACTGATGATC has a switch fluorescence ratio of 1.016 ± 0.0039.
Sequence ACTGATTTTT has a switch fluorescence ratio of 1.015 ± 0.0036.
In the case of ACTGGAAGTC, the switch fluorescence ratio is reported as 0.9875 ± 0.0088.
ACTGGATGCT showed a switch fluorescence ratio of 0.995 ± 0.12.
In the case of ACTGGCAGC, the switch fluorescence ratio is reported as 1.05 ± 0.017.
With ACTGGCAGGG the switch fluorescence ratio was 1.01 ± 0.028.
Sequence ACTGGGAGGC has a switch fluorescence ratio of 1 ± 0.096.
ACTGGGCATG showed a switch fluorescence ratio of 1.01 ± 0.032.
For ACTGGGCCGG, the switch fluorescence ratio was 1.04 ± 0.065.
For ACTGGGGGCT, the switch fluorescence ratio was 0.975 ± 0.0098.
ACTGGGGTAG gave a switch fluorescence ratio of 1.02 ± 0.061.
For ACTGGGTCCG, the switch fluorescence ratio was 1 ± 0.057.
Work on ACTGGTCTCA yielded a switch fluorescence ratio of 1.002 ± 0.0098.
With ACTGTAAGTC the switch fluorescence ratio was 1.06 ± 0.026.
Work on ACTGTACGGC yielded a switch fluorescence ratio of 1.46 ± 0.016.
With ACTGTATACG the switch fluorescence ratio was 1.08 ± 0.026.
Sequence ACTGTCCCGT has a switch fluorescence ratio of 1.019 ± 0.0029.
With ACTGTGCGAC the switch fluorescence ratio was 1.58 ± 0.025.
Work on ACTGTGCGTA yielded a switch fluorescence ratio of 1.03 ± 0.054.
Work on ACTGTGCTCT yielded a switch fluorescence ratio of 1.02 ± 0.016.
Work on ACTGTGGGCA yielded a switch fluorescence ratio of 1.01 ± 0.02.
ACTGTTAATG showed a switch fluorescence ratio of 1.01 ± 0.026.
Work on ACTGTTAGAT yielded a switch fluorescence ratio of 1.02 ± 0.054.
Sequence ACTGTTAGGT has a switch fluorescence ratio of 1.036 ± 0.0055.
For ACTGTTAGTG, the switch fluorescence ratio was 1.02 ± 0.034.
In the case of ACTGTTTTCC, the switch fluorescence ratio is reported as 1.066 ± 0.0042.
Work on ACTGTTTTCG yielded a switch fluorescence ratio of 1.02 ± 0.028.
For ACTTAAAGTC, the switch fluorescence ratio was 0.973 ± 0.029.
With ACTTAACCGG the switch fluorescence ratio was 1.05 ± 0.016.
For ACTTAAGAAA, the switch fluorescence ratio was 1.16 ± 0.13.
In the case of ACTTAAGGTC, the switch fluorescence ratio is reported as 1.001 ± 0.0035.
In the case of ACTTAATCGT, the switch fluorescence ratio is reported as 1.02 ± 0.045.
ACTTACATGG gave a switch fluorescence ratio of 1.23 ± 0.06.
ACTTACTTTA showed a switch fluorescence ratio of 1.18 ± 0.04.
ACTTAGAAAT was tested, and the switch fluorescence ratio was 1.046 ± 0.01.
ACTTAGCATT was tested, and the switch fluorescence ratio was 1.14 ± 0.024.
Work on ACTTAGTCA yielded a switch fluorescence ratio of 1.02 ± 0.021.
Sequence ACTTAGTCCA has a switch fluorescence ratio of 1.03 ± 0.034.
ACTTAGTGCC showed a switch fluorescence ratio of 1.087 ± 0.0073.
Sequence ACTTAGTTTT has a switch fluorescence ratio of 1.0386 ± 0.00082.
Work on ACTTATAATA yielded a switch fluorescence ratio of 1.04 ± 0.038.
In the case of ACTTATTAAT, the switch fluorescence ratio is reported as 1.03 ± 0.027.
Sequence ACTTATTGAA has a switch fluorescence ratio of 1.11 ± 0.17.
ACTTCAAGGG was tested, and the switch fluorescence ratio was 1.26 ± 0.34.
Work on ACTTCACTGC yielded a switch fluorescence ratio of 1.34 ± 0.042.
ACTTCATGGG showed a switch fluorescence ratio of 1.01 ± 0.029.
ACTTCCCAAC showed a switch fluorescence ratio of 1.33 ± 0.047.
For ACTTCCGCGA, the switch fluorescence ratio was 1.75 ± 0.11.
In the case of ACTTCGGTTT, the switch fluorescence ratio is reported as 1.01 ± 0.035.
ACTTCTCTTA gave a switch fluorescence ratio of 1.01 ± 0.013.
Work on ACTTCTGGTG yielded a switch fluorescence ratio of 1.23 ± 0.031.
For ACTTGAGGAT, the switch fluorescence ratio was 1 ± 0.017.
Sequence ACTTGATAGG has a switch fluorescence ratio of 1.03 ± 0.041.
ACTTGATGGG showed a switch fluorescence ratio of 0.992 ± 0.045.
ACTTGCTTGT gave a switch fluorescence ratio of 1.02 ± 0.013.
Work on ACTTGGCGCT yielded a switch fluorescence ratio of 1.034 ± 0.0095.
ACTTGGGGAG showed a switch fluorescence ratio of 1 ± 0.014.
Work on ACTTGTAGAT yielded a switch fluorescence ratio of 1.009 ± 0.0059.
With ACTTGTCATC the switch fluorescence ratio was 0.992 ± 0.043.
With ACTTTACAAA the switch fluorescence ratio was 1.28 ± 0.036.
With ACTTTACTTA the switch fluorescence ratio was 1.33 ± 0.02.
With ACTTTAGATT the switch fluorescence ratio was 1.04 ± 0.0053.
With ACTTTATGTG the switch fluorescence ratio was 0.996 ± 0.035.
For ACTTTCCGTT, the switch fluorescence ratio was 1.1 ± 0.05.
For ACTTTCGATT, the switch fluorescence ratio was 1.09 ± 0.13.
ACTTTGGAGA was tested, and the switch fluorescence ratio was 1.029 ± 0.0054.
ACTTTGGTGC was tested, and the switch fluorescence ratio was 1.03 ± 0.026.
ACTTTTACAT was tested, and the switch fluorescence ratio was 1.13 ± 0.025.
With ACTTTTCTCG the switch fluorescence ratio was 1.01 ± 0.011.
ACTTTTCTCT gave a switch fluorescence ratio of 1.02 ± 0.021.
In the case of ACTTTTGCTG, the switch fluorescence ratio is reported as 0.983 ± 0.019.
Sequence ACTTTTGGCG has a switch fluorescence ratio of 1 ± 0.071.
With ACTTTTTAGG the switch fluorescence ratio was 1.01 ± 0.044.
Sequence ACTTTTTTAA has a switch fluorescence ratio of 1.004 ± 0.0029.
In the case of ACTTTTTTTT, the switch fluorescence ratio is reported as 1.01 ± 0.034.
AGAAAAAGTT showed a switch fluorescence ratio of 1.017 ± 0.0048.
For AGAAAAGGGG, the switch fluorescence ratio was 1.01 ± 0.054.
Work on AGAAAATTAC yielded a switch fluorescence ratio of 2.42 ± 2.
For AGAAAATTCG, the switch fluorescence ratio was 0.981 ± 0.024.
AGAAAATTTC showed a switch fluorescence ratio of 1.04 ± 0.051.
AGAAACGGAA gave a switch fluorescence ratio of 1.27 ± 0.35.
For AGAAACGGAG, the switch fluorescence ratio was 1.02 ± 0.016.
AGAAAGGAGT was tested, and the switch fluorescence ratio was 0.9982 ± 0.0032.
For AGAAATAATC, the switch fluorescence ratio was 1.01 ± 0.015.
With AGAAATTTGA the switch fluorescence ratio was 0.98 ± 0.013.
For AGAACGCGTA, the switch fluorescence ratio was 1.03 ± 0.013.
AGAACGGTAT showed a switch fluorescence ratio of 1.048 ± 0.0034.
AGAACGTCTG showed a switch fluorescence ratio of 0.9969 ± 0.0022.
For AGAACGTTCT, the switch fluorescence ratio was 0.9851 ± 0.0059.
Sequence AGAACTGTGA has a switch fluorescence ratio of 0.9889 ± 0.0037.
AGAACTTAAG showed a switch fluorescence ratio of 1.01 ± 0.037.
For AGAAGCCCCT, the switch fluorescence ratio was 0.992 ± 0.031.
AGAAGCTATT showed a switch fluorescence ratio of 0.9724 ± 0.0017.
Sequence AGAAGGCGGC has a switch fluorescence ratio of 1 ± 0.023.
With AGAAGGGAGG the switch fluorescence ratio was 0.987 ± 0.011.
Sequence AGAAGGGCGG has a switch fluorescence ratio of 0.99 ± 0.037.
AGAAGTAATG gave a switch fluorescence ratio of 0.997 ± 0.011.
AGAATAAAGG gave a switch fluorescence ratio of 0.993 ± 0.05.
AGAATAGGCG showed a switch fluorescence ratio of 1.02 ± 0.022.
AGAATATCGT gave a switch fluorescence ratio of 0.984 ± 0.043.
With AGAATATTCT the switch fluorescence ratio was 0.98 ± 0.014.
AGAATCGTAT showed a switch fluorescence ratio of 1.01 ± 0.028.
With AGAATGAGTG the switch fluorescence ratio was 1.026 ± 0.0048.
AGAATGATTA showed a switch fluorescence ratio of 0.986 ± 0.01.
AGAATGCTTT showed a switch fluorescence ratio of 0.9971 ± 0.0034.
With AGAATGGTAT the switch fluorescence ratio was 1.07 ± 0.08.
With AGAATGGTGT the switch fluorescence ratio was 1.02 ± 0.038.
For AGAATGGTTT, the switch fluorescence ratio was 0.985 ± 0.03.
Work on AGAATGTTTC yielded a switch fluorescence ratio of 0.973 ± 0.021.
AGAATTCAAC was tested, and the switch fluorescence ratio was 1.003 ± 0.004.
AGAATTGAGG showed a switch fluorescence ratio of 0.979 ± 0.016.
Work on AGACAAGGGC yielded a switch fluorescence ratio of 1.06 ± 0.084.
AGACACGGGG showed a switch fluorescence ratio of 1.06 ± 0.02.
AGACAGGGAC gave a switch fluorescence ratio of 1.04 ± 0.016.
AGACAGGGAG gave a switch fluorescence ratio of 1.01 ± 0.031.
For AGACCATAGA, the switch fluorescence ratio was 1.02 ± 0.024.
With AGACCTTCTT the switch fluorescence ratio was 1.51 ± 0.025.
With AGACCTTGGT the switch fluorescence ratio was 0.963 ± 0.03.
Sequence AGACGCGCCA has a switch fluorescence ratio of 1.05 ± 0.087.
With AGACGGAAAG the switch fluorescence ratio was 0.982 ± 0.015.
Sequence AGACGGAACT has a switch fluorescence ratio of 1.08 ± 0.025.
In the case of AGACGGTATT, the switch fluorescence ratio is reported as 1.056 ± 0.0039.
AGACGTCCCA was tested, and the switch fluorescence ratio was 1.02 ± 0.022.
AGACTCGCCC gave a switch fluorescence ratio of 1.12 ± 0.059.
Sequence AGACTGCATT has a switch fluorescence ratio of 1.06 ± 0.03.
AGACTGTTGA showed a switch fluorescence ratio of 1.04 ± 0.019.
Work on AGAGAAAGGG yielded a switch fluorescence ratio of 1.02 ± 0.035.
AGAGAACCCT was tested, and the switch fluorescence ratio was 1.08 ± 0.048.
In the case of AGAGAAGGGA, the switch fluorescence ratio is reported as 1.002 ± 0.0071.
Work on AGAGAAGGGT yielded a switch fluorescence ratio of 0.996 ± 0.017.
AGAGAATATT showed a switch fluorescence ratio of 1.03 ± 0.039.
In the case of AGAGAATGCG, the switch fluorescence ratio is reported as 1.02 ± 0.049.
AGAGACACGG gave a switch fluorescence ratio of 1.03 ± 0.079.
